Measured values: the DeepSol protein solubility set

Assay: soluble on expression in E. coli; label from the status in PepcDB or PDB records

**Q.** Which “soluble on expression in E. coli” value does the source give for “MSLLSVKQSSINEDHNNWDFFGHFVLRSTGFPYEWMKELKMQQTFDLIFQNAKWEQVESKFNQELAIKREQLKAYFDSEDFRQAVFISNPDMYQHIDRYMKHFQSHSRPSKVKRIEKKLFTYLQRFCGKNESASFFGPLNYGQVEPNIDEYWDGSFIETKDLQKREAFLSYWAVKALAKAVAKENELAPYVPLQIPSWIVVRKEYVVLSSGKRINLPAWMMEIMHYIQETSSCLWELQNHFNHIEAGQLKASLEKLISKGLIHREWIIPSTVVHPLHRLLEQLRELPDSPAKNKWCQALDELASEVTKLANLPIVEKRRSFAHLEETFTKLTGEPSRRGKASLYADRFIYYEDAQGHIQEFRFGKPFIEDLQTKLAGSLNMSAAYGEEIWAYYQELGRNVYEDMQVEARNDEKRQLANSGIPFSSFINKLRQTYPDVPQLPKSSFSNKIEAIIREKGTEQRVVKLTSDQLNVFPSNRSFYSLPDLFLQAENIEALRNGDVQIILAKLHHHLLMHNWMTYFYQEKERLERDLVQLVQKLDHEDGTVLSGLEIMRRNKAYYDYPTTVIEYAEKPDSSKESIKLTDLIVVRNDDGHLELQEKNTSRPIELYVPLADQVHYLPFAMFSKPMLLHVPISSGKHTPRIVIDDVVYQRERWFFYTKQLVDLFHQLQGPLLLKKVEEWRQAEGIPEVVYIKGSDVRKPYWVDFKNYFSLELMQQILLENNEITIEEMLPDPHHLWLKSRKGSHSCELRMSVYKLGIKEVSEHAEGHHHHHH” here?
**A.** soluble

**Q.** With “EMTDLQSTHKDFLFEIEEVGIKNLVYPVLVDQYQTAGTFSFSTSLTKDEKGINMSRIIESVEKHYDNGIELEFNTLYQVLRTLQTNMKQNAAGVDVSGKWFFDRYSPTTNIKAVGNADVTYGLAIDGDKVTRKELTIEATVTTLCPCSKEISEYSAHNQRGVVTVKTYINKDQNIVDDYKNKILDAMEANASSILYPILKRPDEKRVTERAYENPRFVEDLIRLIAADLVEFDWLDGFDIECRNEESIHQHDAFAKLKYRK” as the sequence, how does the “soluble on expression in E. coli” value read?
**A.** not soluble

**Q.** With “MGSDKIHHHHHHMKTLGERSKERRKIINLTQLQLSKKVGVSSVTISQWESGDTSPKGENLYKLAQALQCSPDWLMFGDSKNTKKPESNAEWAGGFDLWDNDSPLGEDEVEIPFYMDVELSAGEGIAEGVEYKGPKLRFAKSSLKRQGVNTDHAACVKVNGNSMEPVLPHGSTVGVDTSATEIVDGKMYAINHDGMMRVKMLYKLPGGGLRLRSYNTDEWPDEHINNEQLKNIKVIGKVFWYSVLL” as the sequence, how does the “soluble on expression in E. coli” value read?
**A.** not soluble

**Q.** Which “soluble on expression in E. coli” value does the source give for “MSSKDKKPSKPSSSRGGIRTLSDLNRRSGPDSDSDSDGPQEYYTGGEKSGMLVQDPSKKDDVDEIFNQARQLGAVEGPLEPPPSSRSFTGTGRLLSGENVPTGNQQPEPVVHNIVFWSNGFTIDDGPLRKLDDPENASFLEVNDFHSIRKSECPKELEPADRRAPVHVNLMRKEEKCPERQKRRVSFQGVGRTLGGSNEGSGSSSPVAPDSAPIPIQTEPAPSQSLVIDETVPTTSIQLRLADGTRLVAKFNHHHTVNDIRGFIDSSRPGASLNYQLQTMGFPPKPLTDLTQTIEEAGLANSVVLQKF” here?
**A.** soluble

**Q.** For “MVQDWHQQEKARMIQTLTGTKAVYGSEVESKIIEFAIVGADEVVAEKLGVSIGDFVYKIIRLRIIHSIPTIMEHTWMPISVIPGVEASVLEESIYSHIQNKLGLEVGTSVVRVKGIRPDDREKQFMNLTNQDFLMRVEQVAYLTDGRTFEYSYADHLPETFEFETVITAKKL”, which “soluble on expression in E. coli” value is on record?
**A.** not soluble

**Q.** For “MSELWYTEKQTKNFGITMKVNKTLHTEQTEFQHLEMVETEEFGNMLFLDGMVMTSEKDEFVYHEMVAHVPLFTHPNPEHVLVVGGGDGGVIREILKHPSVKKATLVDIDGKVIEYSKKFLPSIAGKLDDPRVDVQVDDGFMHIAKSENQYDVIMVDSTEPVGPAVNLFTKGFYAGIAKALKEDGIFVAQTDNPWFTPELITNVQRDVKEIFPITKLYTANIPTYPSGLWTFTIGSKKYDPLAVEDSRFFDIETKYYTKDIHKAAFVLPKFVSDLIKLEHHHHHH”, which “soluble on expression in E. coli” value is on record?
**A.** soluble

**Q.** Which “soluble on expression in E. coli” value does the source give for “SLAMAAGANVPLDKANVDLTDKASLQNGAKLFMNYCFACHSTQYQRYERVATDLDIPADLMKENLIFNPEAKIGDLMVNAMPPKQAANWFGAPPPDLTLVARVRGADWLYTYLRSFYVDPSRPFGVNNIVFPSVGMPHVLEELQGIPTPVYGTKMVDGEEVKVVVGTETNGTGELSEGEYDKAVGDLVNFLVYAGDP” here?
**A.** not soluble
